Reference: patent US20230220021A1 (UNIVERSITY OF COPENHAGEN, published 2023)
Where two headings read alike, the source gives them in different places. One block for each binder: values may come before it. [ ]: non-standard residue; d: D form.

Tests used:
[1] = molecular target: T1, (7× His)-PSD-95-PDZ2 wild type (UniProt P78352 160-246); test: FP competition
T1 construct: domain: PDZ2; recombinant from E. coli; also called PSD-95-PDZ2 WT; not shown: 7x His tag

[2] = molecular target: T1, (7× His)-PSD-95-PDZ2 wild type; test: FP competition; remark: listed apart in the source
Procedure: Fluorescence polarization (FP). FP assays were performed in a 384-well plate format. Fluorescence polarization was measured using a Safire 2 plate reader. The instrument Z-factor was optimized for each assay. The G-factor was calibrated to an initial milli polarization value of 20. […] Every measurement was performed in NaPI 50 mM, 50 mM NaCl and 1% BSA at pH 7.2, 25° C. […] The curves were done in triplicates. Then, the polarization was fitted into a one-site binding model using Prism software 8.0 (GraphPad), from which the Kd can be measured. […] The mili polarization (mP) values were plotted as a function of peptide concentration and fitted to a sigmoidal dose-response curve using Prism software 8.0 (GraphPad). The Kᵢ values were calculated according to Nikolovska-Coleska Z. et al.⁴⁰⁻⁴¹

T1 sequence (P78352 160-246): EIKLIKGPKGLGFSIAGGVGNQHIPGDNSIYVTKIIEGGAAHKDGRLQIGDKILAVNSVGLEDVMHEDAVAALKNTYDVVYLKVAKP

B1: cyclic nNOS β-hairpin peptide D114A (peptide)
peptide: cyclo(THLETTFTGAGTPKTIRVTQ[dP]GQ)
SMILES: CC[C@H](C)[C@@H]1NC(=O)[C@H]([C@@H](C)O)NC(=O)[C@H](CCCCN)NC(=O)[C@@H]2CCCN2C(=O)[C@H]([C@@H](C)O)NC(=O)CNC(=O)[C@H](C)NC(=O)CNC(=O)[C@H]([C@@H](C)O)NC(=O)[C@H](Cc2ccccc2)NC(=O)[C@H]([C@@H](C)O)NC(=O)[C@H]([C@@H](C)O)NC(=O)[C@H](CCC(=O)O)NC(=O)[C@H](CC(C)C)NC(=O)[C@H](Cc2c[nH]cn2)NC(=O)[C@H]([C@@H](C)O)NC(=O)[C@H](CCC(N)=O)NC(=O)CNC(=O)[C@H]2CCCN2C(=O)[C@H](CCC(N)=O)NC(=O)[C@H]([C@@H](C)O)NC(=O)[C@H](C(C)C)NC(=O)[C@H](CCCNC(=N)N)NC1=O
- Ki [1]: 3220 nM
- Relative Ki (Ki mut/Ki WT) [1]: 2.15

B3: cyclic nNOS β-hairpin peptide I120A (peptide)
peptide: cyclo(THLETTFTGDGTPKTARVTQ[dP]GQ)
SMILES: CC(C)C[C@@H]1NC(=O)[C@H](Cc2c[nH]cn2)NC(=O)[C@H]([C@@H](C)O)NC(=O)[C@H](CCC(N)=O)NC(=O)CNC(=O)[C@H]2CCCN2C(=O)[C@H](CCC(N)=O)NC(=O)[C@H]([C@@H](C)O)NC(=O)[C@H](C(C)C)NC(=O)[C@H](CCCNC(=N)N)NC(=O)[C@H](C)NC(=O)[C@H]([C@@H](C)O)NC(=O)[C@H](CCCCN)NC(=O)[C@@H]2CCCN2C(=O)[C@H]([C@@H](C)O)NC(=O)CNC(=O)[C@H](CC(=O)O)NC(=O)CNC(=O)[C@H]([C@@H](C)O)NC(=O)[C@H](Cc2ccccc2)NC(=O)[C@H]([C@@H](C)O)NC(=O)[C@H]([C@@H](C)O)NC(=O)[C@H](CCC(=O)O)NC1=O
- Ki [1]: 1760 nM
- Relative Ki (Ki mut/Ki WT) [1]: 1.17

B4: cyclic nNOS β-hairpin peptide E108A (peptide)
peptide: cyclo(THLATTFTGDGTPKTIRVTQ[dP]GQ)
SMILES: CC[C@H](C)[C@@H]1NC(=O)[C@H]([C@@H](C)O)NC(=O)[C@H](CCCCN)NC(=O)[C@@H]2CCCN2C(=O)[C@H]([C@@H](C)O)NC(=O)CNC(=O)[C@H](CC(=O)O)NC(=O)CNC(=O)[C@H]([C@@H](C)O)NC(=O)[C@H](Cc2ccccc2)NC(=O)[C@H]([C@@H](C)O)NC(=O)[C@H]([C@@H](C)O)NC(=O)[C@H](C)NC(=O)[C@H](CC(C)C)NC(=O)[C@H](Cc2c[nH]cn2)NC(=O)[C@H]([C@@H](C)O)NC(=O)[C@H](CCC(N)=O)NC(=O)CNC(=O)[C@H]2CCCN2C(=O)[C@H](CCC(N)=O)NC(=O)[C@H]([C@@H](C)O)NC(=O)[C@H](C(C)C)NC(=O)[C@H](CCCNC(=N)N)NC1=O
- Ki [1]: 21200 nM
- Relative Ki (Ki mut/Ki WT) [1]: 14.1

B7: cyclic nNOS β-hairpin peptide G113A (peptide)
peptide: cyclo(THLETTFTADGTPKTIRVTQ[dP]GQ)
SMILES: CC[C@H](C)[C@@H]1NC(=O)[C@H]([C@@H](C)O)NC(=O)[C@H](CCCCN)NC(=O)[C@@H]2CCCN2C(=O)[C@H]([C@@H](C)O)NC(=O)CNC(=O)[C@H](CC(=O)O)NC(=O)[C@H](C)NC(=O)[C@H]([C@@H](C)O)NC(=O)[C@H](Cc2ccccc2)NC(=O)[C@H]([C@@H](C)O)NC(=O)[C@H]([C@@H](C)O)NC(=O)[C@H](CCC(=O)O)NC(=O)[C@H](CC(C)C)NC(=O)[C@H](Cc2c[nH]cn2)NC(=O)[C@H]([C@@H](C)O)NC(=O)[C@H](CCC(N)=O)NC(=O)CNC(=O)[C@H]2CCCN2C(=O)[C@H](CCC(N)=O)NC(=O)[C@H]([C@@H](C)O)NC(=O)[C@H](C(C)C)NC(=O)[C@H](CCCNC(=N)N)NC1=O
- Ki [1]: 4550 nM
- Relative Ki (Ki mut/Ki WT) [1]: 3.03

B9: cyclic nNOS β-hairpin peptide H106A (peptide)
peptide: cyclo(TALETTFTGDGTPKTIRVTQ[dP]GQ)
SMILES: CC[C@H](C)[C@@H]1NC(=O)[C@H]([C@@H](C)O)NC(=O)[C@H](CCCCN)NC(=O)[C@@H]2CCCN2C(=O)[C@H]([C@@H](C)O)NC(=O)CNC(=O)[C@H](CC(=O)O)NC(=O)CNC(=O)[C@H]([C@@H](C)O)NC(=O)[C@H](Cc2ccccc2)NC(=O)[C@H]([C@@H](C)O)NC(=O)[C@H]([C@@H](C)O)NC(=O)[C@H](CCC(=O)O)NC(=O)[C@H](CC(C)C)NC(=O)[C@H](C)NC(=O)[C@H]([C@@H](C)O)NC(=O)[C@H](CCC(N)=O)NC(=O)CNC(=O)[C@H]2CCCN2C(=O)[C@H](CCC(N)=O)NC(=O)[C@H]([C@@H](C)O)NC(=O)[C@H](C(C)C)NC(=O)[C@H](CCCNC(=N)N)NC1=O
- Ki [1]: 2060 nM
- Relative Ki (Ki mut/Ki WT) [1]: 1.37

The next lines start with the values.

- Ki [2]: 1590 nM
- Relative Ki (Ki mut/Ki WT) [2]: 1.06
B2: cyclic nNOS β-hairpin peptide T123R (peptide)
peptide: cyclo(THLETTFTGDGTPKTIRVRQ[dP]GQ)
SMILES: CC[C@H](C)[C@@H]1NC(=O)[C@H]([C@@H](C)O)NC(=O)[C@H](CCCCN)NC(=O)[C@@H]2CCCN2C(=O)[C@H]([C@@H](C)O)NC(=O)CNC(=O)[C@H](CC(=O)O)NC(=O)CNC(=O)[C@H]([C@@H](C)O)NC(=O)[C@H](Cc2ccccc2)NC(=O)[C@H]([C@@H](C)O)NC(=O)[C@H]([C@@H](C)O)NC(=O)[C@H](CCC(=O)O)NC(=O)[C@H](CC(C)C)NC(=O)[C@H](Cc2c[nH]cn2)NC(=O)[C@H]([C@@H](C)O)NC(=O)[C@H](CCC(N)=O)NC(=O)CNC(=O)[C@H]2CCCN2C(=O)[C@H](CCC(N)=O)NC(=O)[C@H](CCCNC(=N)N)NC(=O)[C@H](C(C)C)NC(=O)[C@H](CCCNC(=N)N)NC1=O

- Ki [2]: 1340 nM
- Relative Ki (Ki mut/Ki WT) [2]: 0.89
B5: cyclic nNOS β-hairpin peptide V122F (peptide)
peptide: cyclo(THLETTFTGDGTPKTIRFTQ[dP]GQ)
SMILES: CC[C@H](C)[C@@H]1NC(=O)[C@H]([C@@H](C)O)NC(=O)[C@H](CCCCN)NC(=O)[C@@H]2CCCN2C(=O)[C@H]([C@@H](C)O)NC(=O)CNC(=O)[C@H](CC(=O)O)NC(=O)CNC(=O)[C@H]([C@@H](C)O)NC(=O)[C@H](Cc2ccccc2)NC(=O)[C@H]([C@@H](C)O)NC(=O)[C@H]([C@@H](C)O)NC(=O)[C@H](CCC(=O)O)NC(=O)[C@H](CC(C)C)NC(=O)[C@H](Cc2c[nH]cn2)NC(=O)[C@H]([C@@H](C)O)NC(=O)[C@H](CCC(N)=O)NC(=O)CNC(=O)[C@H]2CCCN2C(=O)[C@H](CCC(N)=O)NC(=O)[C@H]([C@@H](C)O)NC(=O)[C@H](Cc2ccccc2)NC(=O)[C@H](CCCNC(=N)N)NC1=O

- Ki [1]: 1430 nM
- Relative Ki (Ki mut/Ki WT) [1]: 0.95
B6: cyclic nNOS β-hairpin peptide K118A (peptide)
peptide: cyclo(THLETTFTGDGTPATIRVTQ[dP]GQ)
SMILES: CC[C@H](C)[C@@H]1NC(=O)[C@H]([C@@H](C)O)NC(=O)[C@H](C)NC(=O)[C@@H]2CCCN2C(=O)[C@H]([C@@H](C)O)NC(=O)CNC(=O)[C@H](CC(=O)O)NC(=O)CNC(=O)[C@H]([C@@H](C)O)NC(=O)[C@H](Cc2ccccc2)NC(=O)[C@H]([C@@H](C)O)NC(=O)[C@H]([C@@H](C)O)NC(=O)[C@H](CCC(=O)O)NC(=O)[C@H](CC(C)C)NC(=O)[C@H](Cc2c[nH]cn2)NC(=O)[C@H]([C@@H](C)O)NC(=O)[C@H](CCC(N)=O)NC(=O)CNC(=O)[C@H]2CCCN2C(=O)[C@H](CCC(N)=O)NC(=O)[C@H]([C@@H](C)O)NC(=O)[C@H](C(C)C)NC(=O)[C@H](CCCNC(=N)N)NC1=O

- Ki [2]: 1870 nM
- Relative Ki (Ki mut/Ki WT) [2]: 1.25
B8: cyclic nNOS β-hairpin peptide T123Y (peptide)
peptide: cyclo(THLETTFTGDGTPKTIRVYQ[dP]GQ)
SMILES: CC[C@H](C)[C@@H]1NC(=O)[C@H]([C@@H](C)O)NC(=O)[C@H](CCCCN)NC(=O)[C@@H]2CCCN2C(=O)[C@H]([C@@H](C)O)NC(=O)CNC(=O)[C@H](CC(=O)O)NC(=O)CNC(=O)[C@H]([C@@H](C)O)NC(=O)[C@H](Cc2ccccc2)NC(=O)[C@H]([C@@H](C)O)NC(=O)[C@H]([C@@H](C)O)NC(=O)[C@H](CCC(=O)O)NC(=O)[C@H](CC(C)C)NC(=O)[C@H](Cc2c[nH]cn2)NC(=O)[C@H]([C@@H](C)O)NC(=O)[C@H](CCC(N)=O)NC(=O)CNC(=O)[C@H]2CCCN2C(=O)[C@H](CCC(N)=O)NC(=O)[C@H](Cc2ccc(O)cc2)NC(=O)[C@H](C(C)C)NC(=O)[C@H](CCCNC(=N)N)NC1=O

- Ki [2]: 1690 nM
- Relative Ki (Ki mut/Ki WT) [2]: 1.13
B10: cyclic nNOS β-hairpin peptide V122R (peptide)
peptide: cyclo(THLETTFTGDGTPKTIRRTQ[dP]GQ)
SMILES: CC[C@H](C)[C@@H]1NC(=O)[C@H]([C@@H](C)O)NC(=O)[C@H](CCCCN)NC(=O)[C@@H]2CCCN2C(=O)[C@H]([C@@H](C)O)NC(=O)CNC(=O)[C@H](CC(=O)O)NC(=O)CNC(=O)[C@H]([C@@H](C)O)NC(=O)[C@H](Cc2ccccc2)NC(=O)[C@H]([C@@H](C)O)NC(=O)[C@H]([C@@H](C)O)NC(=O)[C@H](CCC(=O)O)NC(=O)[C@H](CC(C)C)NC(=O)[C@H](Cc2c[nH]cn2)NC(=O)[C@H]([C@@H](C)O)NC(=O)[C@H](CCC(N)=O)NC(=O)CNC(=O)[C@H]2CCCN2C(=O)[C@H](CCC(N)=O)NC(=O)[C@H]([C@@H](C)O)NC(=O)[C@H](CCCNC(=N)N)NC(=O)[C@H](CCCNC(=N)N)NC1=O

- Ki [2]: 1270 nM
- Relative Ki (Ki mut/Ki WT) [2]: 0.85
B11: cyclic nNOS β-hairpin peptide V122Y (peptide)
peptide: cyclo(THLETTFTGDGTPKTIRYTQ[dP]GQ)
SMILES: CC[C@H](C)[C@@H]1NC(=O)[C@H]([C@@H](C)O)NC(=O)[C@H](CCCCN)NC(=O)[C@@H]2CCCN2C(=O)[C@H]([C@@H](C)O)NC(=O)CNC(=O)[C@H](CC(=O)O)NC(=O)CNC(=O)[C@H]([C@@H](C)O)NC(=O)[C@H](Cc2ccccc2)NC(=O)[C@H]([C@@H](C)O)NC(=O)[C@H]([C@@H](C)O)NC(=O)[C@H](CCC(=O)O)NC(=O)[C@H](CC(C)C)NC(=O)[C@H](Cc2c[nH]cn2)NC(=O)[C@H]([C@@H](C)O)NC(=O)[C@H](CCC(N)=O)NC(=O)CNC(=O)[C@H]2CCCN2C(=O)[C@H](CCC(N)=O)NC(=O)[C@H]([C@@H](C)O)NC(=O)[C@H](Cc2ccc(O)cc2)NC(=O)[C@H](CCCNC(=N)N)NC1=O
